Patent US12065471B2, “B*44 restricted peptides for use in immunotherapy against cancers and related methods” (Immatics Biotechnologies GmbH, priority 2018, dated 2024)

Biological target: HLA-B*44:05 (Homo sapiens, UniProt P01889, A223V/A65T/A93T/A95T/D201E/D98Y/E176V/E187L/E204Q/E69K/G107R/H137Y/K202T/L105A/L119I/N104T/N87E/Q56L/Q94N/R106L/R155S/R180D/S101N/S121R/S35A/S48T/T118I/V36M/W191S/Y91S)
Test: MHC binding assay (UV-ligand exchange, β2m ELISA, peptide exchange yield)
Conditions: binding to HLA-B*44:05
From the text: Candidate peptides for T cell-based therapies according to the present invention were further tested for their MHC binding capacity (affinity). The individual peptide-MHC complexes were produced by UV-ligand exchange, where a UV-sensitive peptide is cleaved upon UV-irradiation and exchanged with the peptide of interest as analyzed. Only peptide candidates that can effectively bind and stabilize the peptide-receptive MHC molecules prevent dissociation of the MHC complexes. To determine the yield of the exchange reaction, an ELISA was performed based on the detection of the light chain (β2m) of stabilized MHC complexes. The assay was performed as generally described in Rodenko et al. (Rodenko et al., 2006)
96 well MAXISorp plates (NUNC) were coated over night with 2 μg/ml streptavidin in PBS at room temperature, washed 4× and blocked for 1 h at 37° C. in 2% BSA containing blocking buffer. Refolded HLA-A*02:01/MLA-001 monomers served as standards, covering the range of 15-500 ng/ml. Peptide-MHC monomers of the UV-exchange reaction were diluted 100-fold in blocking buffer. Samples were incubated for 1h at 37° C., washed four times, incubated with 2 μg/ml HRP conjugated anti-β2m for 1h at 37° C., washed again and detected with TMB solution that is stopped with […]. Absorption was measured at 450 nm.

| Substance | Peptide exchange (MHC class I binding score, peptide exchange yield) |
| --- | --- |
| 162 (EAYDIELNKW; listed as Homo sapiens) [compound 162] | +++ (>50 = +++) |
| 67 (TEGAVEVKY; listed as Homo sapiens) [compound 67] | ++ (>20% = ++) |
| 259 (IEVSSPITLQAL; listed as Homo sapiens) [compound 259] | ++ (>20% = ++) |
| 191 (AEHDMKSVL; listed as Homo sapiens) [compound 191] | +++ (>50 = +++) |
| 280 (AAEPLVGQRW; listed as Homo sapiens) [compound 280] | ++ (>20% = ++) |
| 236 (LEDQLKPMLEW; listed as Homo sapiens) [compound 236] | +++ (>50 = +++) |
| 147 (RMLSFQQMTW; listed as Homo sapiens) [compound 147] | ++ (>20% = ++) |
| 216 (AGSPVMRKW; listed as Homo sapiens) [compound 216] | ++ (>20% = ++) |
| 187 (TEQALRLSV; listed as Homo sapiens) [compound 187] | ++++ (>75% = ++++) |
| 249 (YEMAIYKKY; listed as Homo sapiens) [compound 249] | ++++ (>75% = ++++) |
| 250 (AELDHLASL; listed as Homo sapiens) [compound 250] | +++ (>50 = +++) |
| 174 (DENDAGNLITF; listed as Homo sapiens) [compound 174] | +++ (>50 = +++) |
| 85 (SEIDEKVTDL; listed as Homo sapiens) [compound 85] | +++ (>50 = +++) |
| 267 (VELEVPQL; listed as Homo sapiens) [compound 267] | ++ (>20% = ++) |
| 232 (YEIRAEAL; listed as Homo sapiens) [compound 232] | ++ (>20% = ++) |
| 204 (YERPTLVEL; listed as Homo sapiens) [compound 204] | +++ (>50 = +++) |
| 92 (KEPSQSCIAQY; listed as Homo sapiens) [compound 92] | + (>10% = +) |
| 115 (QEPFTRPVL; listed as Homo sapiens) [compound 115] | +++ (>50 = +++) |

Results, then the substance that gave them:

| Peptide exchange (MHC class I binding score, peptide exchange yield) | Substance |
| --- | --- |
| +++ (>50 = +++) | 345 (AEYQAAILHL; listed as Homo sapiens) [compound 345] |
| + (>10% = +) | 281 (HEIPQESL; listed as Homo sapiens) [compound 281] |
| +++ (>50 = +++) | 357 (AELMDKPLTF; listed as Homo sapiens) [compound 357] |
| ++++ (>75% = ++++) | 292 (HELALRQTV; listed as Homo sapiens) [compound 292] |
| ++++ (>75% = ++++) | 403 (QESVHVASY; listed as Homo sapiens) [compound 403] |
| +++ (>50 = +++) | 339 (NEVKEIKGY; listed as Homo sapiens) [compound 339] |
| +++ (>50 = +++) | 341 (HELESENKKW; listed as Homo sapiens) [compound 341] |
| +++ (>50 = +++) | 295 (QELEQEVISL; listed as Homo sapiens) [compound 295] |
| +++ (>50 = +++) | 435 (FETEQALRL; listed as Homo sapiens) [compound 435] |
| +++ (>50 = +++) | 378 (QELFLQEVRM; listed as Homo sapiens) [compound 378] |
